Experimental data as given in publication PMC3942289, “Characterization of Ten Heterotetrameric NDP-Dependent Acyl-CoA Synthetases of the Hyperthermophilic Archaeon Pyrococcus furiosus” (Archaea, 2014).

Tests used:
ACS4-G = biological target: T1, ACS4-G (Pyrococcus furiosus, UniProt E7FHP1+Q8U1W9); conditions: reverse reaction; 20 mM acid, 1 mM ATP or GTP, 0.5 mM CoA, 2 mM MgCl2, pH 7.0, 80°C
T1 construct: gene PF1085

ACS3-G = biological target: T2, ACS3-G (Pyrococcus furiosus, UniProt E7FHP1+Q8U461); conditions: reverse reaction; 20 mM acid, 1 mM ATP or GTP, 0.5 mM CoA, 2 mM MgCl2, pH 7.0, 80°C
T2 construct: gene PF0233
T2 sequence (E7FHP1 whole entry, one chain of several): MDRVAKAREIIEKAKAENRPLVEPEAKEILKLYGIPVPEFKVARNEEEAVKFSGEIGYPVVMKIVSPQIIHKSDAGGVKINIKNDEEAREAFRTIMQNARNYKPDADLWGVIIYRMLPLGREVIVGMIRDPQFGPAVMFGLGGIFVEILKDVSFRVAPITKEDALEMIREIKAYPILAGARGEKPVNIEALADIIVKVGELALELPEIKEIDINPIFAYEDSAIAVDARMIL

ACS5-G = biological target: T3, ACS5-G (Pyrococcus furiosus, UniProt E7FHP1+Q8TZY7); conditions: reverse reaction; 20 mM acid, 1 mM ATP or GTP, 0.5 mM CoA, 2 mM MgCl2, pH 7.0, 80°C
T3 construct: gene PF1838
T3 sequence (E7FHP1 whole entry, one chain of several): as above

ACS2-G = biological target: T4, ACS2-G (Pyrococcus furiosus, UniProt E7FHP1+Q8U3D6); conditions: reverse reaction; 20 mM acid, 1 mM ATP or GTP, 0.5 mM CoA, 2 mM MgCl2, pH 7.0, 80°C
T4 construct: gene acdAII
T4 sequence (E7FHP1 whole entry, one chain of several): as above

[1] = substrate: CC(C)C(=O)SCCNC(=O)CCNC(=O)[C@H](O)C(C)(C)COP(=O)(O)OP(=O)(O)OC[C@H]1O[C@@H](n2cnc3c(N)ncnc32)[C@H](O)[C@@H]1OP(=O)(O)O; assay: DTNB assay of released CoASH, 96-well; assay type: biochemical, Pyrococcus furiosus; conditions: forward reaction, 2 mM ADP, 10 mM K2HPO4, 2 mM MgCl2, pH 7.0, 80°C
From the text: (§1) DTNB assay of released CoASH, 96-well on ACS5-A

[2] = substrate: CC(=O)SCCNC(=O)CCNC(=O)[C@H](O)C(C)(C)COP(=O)(O)OP(=O)(O)OC[C@H]1O[C@@H](n2cnc3c(N)ncnc32)[C@H](O)[C@@H]1OP(=O)(O)O; assay: DTNB assay of released CoASH, 96-well; assay type: biochemical, Pyrococcus furiosus; conditions: forward reaction, 2 mM ADP, 10 mM K2HPO4, 2 mM MgCl2, pH 7.0, 80°C
From the text: as §1

[3] = substrate: CC(C)CC(=O)SCCNC(=O)CCNC(=O)[C@H](O)C(C)(C)COP(=O)(O)OP(=O)(O)OC[C@H]1O[C@@H](n2cnc3c(N)ncnc32)[C@H](O)[C@@H]1OP(=O)(O)O; assay: DTNB assay of released CoASH, 96-well; assay type: biochemical, Pyrococcus furiosus; conditions: forward reaction, 2 mM ADP, 10 mM K2HPO4, 2 mM MgCl2, pH 7.0, 80°C
From the text: as §1

[4] = substrate: CC(=O)SCCNC(=O)CCNC(=O)[C@H](O)C(C)(C)COP(=O)(O)OP(=O)(O)OC[C@H]1O[C@@H](n2cnc3c(N)ncnc32)[C@H](O)[C@@H]1OP(=O)(O)O; assay: DTNB assay of released CoASH, 96-well; assay type: biochemical, Pyrococcus furiosus; conditions: forward reaction, 2 mM ADP, 10 mM K2HPO4, 2 mM MgCl2, pH 7.0, 80°C; remark: listed apart in the source
From the text: DTNB assay of released CoASH, 96-well on ACS4-A

[5] = substrate: CC(=O)SCCNC(=O)CCNC(=O)[C@H](O)C(C)(C)COP(=O)(O)OP(=O)(O)OC[C@H]1O[C@@H](n2cnc3c(N)ncnc32)[C@H](O)[C@@H]1OP(=O)(O)O; assay: DTNB assay of released CoASH, 96-well; assay type: biochemical, Pyrococcus furiosus; conditions: forward reaction, 2 mM ADP, 10 mM K2HPO4, 2 mM MgCl2, pH 7.0, 80°C; remark: listed apart in the source
From the text: DTNB assay of released CoASH, 96-well on ACS3-A

[6] = substrate: Nc1ncnc2c1ncn2[C@@H]1O[C@H](COP(=O)(O)OP(=O)(O)OP(=O)(O)O)[C@@H](O)[C@H]1O; assay: colorimetric phosphate release, 96-well; assay type: biochemical, Pyrococcus furiosus; conditions: reverse reaction (acid + CoA), 20 mM acid substrate, 0.5 mM CoA, 2 mM MgCl2, pH 7.0, 80°C
[7] = substrate: Nc1nc2c(ncn2[C@@H]2O[C@H](COP(=O)(O)OP(=O)(O)OP(=O)(O)O)[C@@H](O)[C@H]2O)c(=O)[nH]1; assay: colorimetric phosphate release, 96-well; assay type: biochemical, Pyrococcus furiosus; conditions: reverse reaction (acid + CoA), 20 mM acid substrate, 0.5 mM CoA, 2 mM MgCl2, pH 7.0, 80°C
[8] = substrate: CC(=O)SCCNC(=O)CCNC(=O)[C@H](O)C(C)(C)COP(=O)(O)OP(=O)(O)OC[C@H]1O[C@@H](n2cnc3c(N)ncnc32)[C@H](O)[C@@H]1OP(=O)(O)O; assay: DTNB assay of released CoASH, 96-well; assay type: biochemical, Pyrococcus furiosus; conditions: forward reaction, 2 mM ADP, 10 mM K2HPO4, 2 mM MgCl2, pH 7.0, 80°C; remark: listed apart in the source
From the text: DTNB assay of released CoASH, 96-well on ACS1-A

[9] = substrate: CC(=O)SCCNC(=O)CCNC(=O)[C@H](O)C(C)(C)COP(=O)(O)OP(=O)(O)OC[C@H]1O[C@@H](n2cnc3c(N)ncnc32)[C@H](O)[C@@H]1OP(=O)(O)O; assay: DTNB assay of released CoASH, 96-well; assay type: biochemical, Pyrococcus furiosus; conditions: forward reaction, 2 mM ADP, 10 mM K2HPO4, 2 mM MgCl2, pH 7.0, 80°C; remark: listed apart in the source
From the text: (§2) DTNB assay of released CoASH, 96-well on ACS2-A

[10] = substrate: CC(C)(COP(=O)(O)OP(=O)(O)OC[C@H]1O[C@@H](n2cnc3c(N)ncnc32)[C@H](O)[C@@H]1OP(=O)(O)O)[C@@H](O)C(=O)NCCC(=O)NCCSC(=O)Cc1ccccc1; assay: DTNB assay of released CoASH, 96-well; assay type: biochemical, Pyrococcus furiosus; conditions: forward reaction, 2 mM ADP, 10 mM K2HPO4, 2 mM MgCl2, pH 7.0, 80°C
From the text: as §2

[11] = substrate: CC(C)CC(=O)SCCNC(=O)CCNC(=O)[C@H](O)C(C)(C)COP(=O)(O)OP(=O)(O)OC[C@H]1O[C@@H](n2cnc3c(N)ncnc32)[C@H](O)[C@@H]1OP(=O)(O)O; assay: DTNB assay of released CoASH, 96-well; assay type: biochemical, Pyrococcus furiosus; conditions: forward reaction, 2 mM ADP, 10 mM K2HPO4, 2 mM MgCl2, pH 7.0, 80°C; remark: listed apart in the source
From the text: as §2

T1 sequence (E7FHP1 whole entry, one chain of several): as above

O=C(O)Cc1c[nH]cn1 [imidazole 4-acetate]
relative activity (ACS4-G): ACS4 was the only isoenzyme that shows significant activity with imidazole 4-acetate

O=C(O)CCC(=O)O [succinate]
relative activity (ACS3-G): The only isoenzyme that showed activity with succinate was ACS3

C[C@H](O)C(=O)O [lactate]
relative activity (ACS5-G): ACS5 is the only enzyme that has significant activity with lactate

CSCCC(=O)O [3-methylthiopropionate]
relative activity (ACS2-G): Surprisingly, ACS2 was also active with 3-methylthiopropionate

B1: ACS5-A (Pyrococcus furiosus DSM 3638) (protein)
chain 1: MINNLDIKEQLRSFFDPKAVAIIGATNKKGKVGNVIFENFKRNKERGIFKGNIYPVNPKLDEIDGYKVYHSVEELPDDTDLAVVAIPAPAVPETMRKIAEKGIKAVVIITGGFGELGEEGKRMEQEILEIARAHGIRVIGPNCVGVYVPDTGVDTVFLPEEKMDRPKSGPIAFVSQSGAFAAAMLDWAAMAGIGIGKMVSYGNKIDVDDADLMEYFAQDEQIKVMTFYIEGVKDGRRFMEVAKRVTKIKPIIALKSGRTEYGAKAASSHTGSLAGQDVIYDAVFKQTGIIRAEDFEHMFDLAKAFAKCKLPKGDRIGIITDGGGAGVMASDAVAKFGLKLAELSEETLRFLREKFPPHAVVGNPTDVVGDTDAERYRLALEAFTKDPNVDAILVIVLFQVPLLDEEEVIEIIADYAKKSDKPIVAVSMGGYKTDRYAKMLEEKGVPVYPTPERGVRALAGLVRYAEYLRKMGE
chain 2: MKGEALKIIEEVLAQGRTAMVEYEAKQVLKAYGLPVPEEKLAKTLDEALKYAEEIGYPVAMKLMSPQILHKSDAKVVMLNIKSPEELKKKWEEIHENARKYRPDAEIFGVLIAPMLKPGREVIIGVTEDPQFGHAIMFGLGGIFVEILKDVTFRIIPITEKDARKMITEIKAYPILAGARGEEPADIEAIVDMLLKVSKLVDDLKDYIKEMDLNPVFVYRKGEGAVVVDARIILKG
notes: alpha (pET24a) and beta-A (pET21b) coexpressed in E. coli BL21(DE3) pRIL, untagged, heat-treated and desalted; alpha2beta2 ~140 kDa; The same primer pair is printed for PF1838 and PF1837 (probable misprint)
Km [1]: 2730 ± 1080 µM | kcat/Km [1]: 83000 M⁻¹ s⁻¹ | Km [2]: 620 ± 1.0 µM | kcat/Km [2]: 112000 M⁻¹ s⁻¹ | Km [3]: 820 ± 407 µM | kcat/Km [3]: 120000 M⁻¹ s⁻¹

B2: ACS4-A (Pyrococcus furiosus DSM 3638) (protein)
chain 1: MRYFFYPNSVAIFGSFREGAIAREILRNIVEGGFEGKIIPVNPKGGEVEVAGKKFNIKEKLDEPVDVSIIAIPAKLVPELIRGLKGLTKGAVVISAGFSEVGNVELEKELIKAAKEAGIRVIGPNCAGIFGVHAKFYGSFEVRVNPGGLALISQSGAFGGAALAMGNEEGIGFSAFVSYGNAADLDESDFLRFFADDENTRVIGLYIEGVKDGRKFLDALRYAASKKPVIILKAGKSRAGARAAASHTGSLAGSYEIYRAAFRQAGAIEVEEMEELFDAAKAFEMYERAGRRVAIITNSGGPGVLATDKLERLGLEIAKLTEETVEELRSFLPPQCSVKNPVDLIADADYERYKRAIEVVCRDENVDAILVICVPPIFIPSEEIARAVVEANCDKPIIVNFMAGELVREGIKILESKKIKNFPTPERAAKALYWLSLRSSSE
chain 2: B1 chain 2
notes: alpha (pET24a) and beta-A (pET21b) coexpressed in E. coli BL21(DE3) pRIL, untagged, heat-treated and desalted; alpha2beta2 ~140 kDa; Printed PF1837 primers identical to PF1838 (probable misprint)
Km [4]: 242 ± 46 µM | kcat/Km [4]: 119000 M⁻¹ s⁻¹

B3: ACS3-A (Pyrococcus furiosus DSM 3638) (protein)
chain 1: MTVNLDFLFYPKSVAVIGASATPGKVGNAIMKSLAANFNGKVYPVNVKEGEIEINGKKFKVYRSIKEIPDEVDVAVIAVPAKFVPDVIDECGEKGVKGAIVISAGFKEAGRADLEEELVKRARKWGIRVVGPNCLGVTNLENGFDCNFNPPERQARPKFGPIAFMSQSGAFGAAILDWAARHEVGMSKFISLGNMADLDESDFMLYLKDDPKTKVITAYIEGVKDGRKFFNAAKETTKVKPVIILKAGRTEAGAKAAASHTGSLAGSYKIYQAAFEQTGVLAAKSMRQLFNYAKALAMQSPAKGDRVAIVTNGGGAGVMMSDGLLEAGLKLAEFTEETKEKFRKAIEEGLLPEHMSYKNPVDVIGDAPSSRYETAIRYVLEDPNVDIVVVIALFQSPALDEGIVDVMERVKEYGKPIVFVAPGGEYPERMARKIEEKGIPVFETVEDGVDAVYALIKYGKYLAEL
chain 2: B1 chain 2
notes: as for B2
Km [5]: 474 ± 165 µM | kcat/Km [5]: 12000 M⁻¹ s⁻¹

B4: ACS1-A (Pyrococcus furiosus DSM 3638) (protein)
chain 1: MSLEALFNPKSVAVIGASAKPGKIGYAIMKNLIEYGYEGKIYPVNIKGGEIEINGRKFKVYKSVLEIPDEVDMAVIVVPAKFVPQVLEECGQKGVKVVPIISSGFGELGEEGKKVEQQLVETARKYGMRILGPNIFGVVYTPAKLNATFGPTDVLPGPLALISQSGALGIALMGWTILEKIGLSAVVSVGNKADIDDADLLEFFKDDENTRAILIYMEGVKDGRRFMEVAKEVSKKKPIIVIKAGRSERGAKAAASHTGSLAGSDKVYSAAFKQSGVLRAYTIGEAFDWARALSNLPEPQGDNVVIITNGGGIGVMATDAAEEEGLHLYDNLEELKIFANHMPPFGSYKNPVDLTGMADGKSYEGAIRDALAHPEMHSIAVLYCQTAVLDPRELAEIVIREYNESGRKKPLVVAIVGGIEAKEAIDMLNENGIPAYPEPERAIKALSALYKWSKWKAKHKEK
chain 2: B1 chain 2
notes: alpha (pET24a) and beta-A (pET21b) coexpressed in E. coli BL21(DE3) pRIL, untagged (stop codons in primers), heat-treated and desalted; alpha2beta2 ~140 kDa; Printed PF1837 primers are identical to those of PF1838 (probable misprint)
Km [6]: 132 ± 19 µM | kcat/Km [6]: 140000 M⁻¹ s⁻¹ | Km [7]: 223 ± 58 µM | kcat/Km [7]: 10000 M⁻¹ s⁻¹ | Km [8]: 137 ± 91 µM | kcat/Km [8]: 140000 M⁻¹ s⁻¹

B5: ACS2-A (Pyrococcus furiosus DSM 3638) (protein)
chain 1: MLDYFFNPRGIAVIGASNDPKKLGYEVFKNLKEYQGGKVYPVNVREEEVQGVKAYKSVKEIPGEVDLAIIVVPKKFVKQTLIECGEKGVKGVVIITAGFGETGEEGKREEKELVEIAHKYGMRIIGPNCVGIMNTHANLNATFITVAKKGNVAFISQSGALGAGIVYKTIKEDIGFSKFISVGNMADLDFADLMEYLADTQEDKAIALYIEGIKDGRRFIEVAKKVTKKKPVIALKAGKSESGSRAAASHTGSLAGSWKIYEAAFKQSGVLVANTIDEMLSMARAFTQPLPKGNRVAIMTNAGGPGVLTADEIDKRGLKLANLEEKTIEELRSFLPPMAAVKNPVDMIASARGEDYYRTAKLLLQDPNVDILIAICVVPTFAGMTPTEHAEGIIRAVKEVNNGKPVLALFMAGYVSEKAKELLEKNGIPTYERPEDVAAAAYALVQQAKNVGGGVNG
chain 2: B1 chain 2
notes: as for B2
Km [9]: 350 ± 2 µM | kcat/Km [9]: 114000 M⁻¹ s⁻¹ | Km [10]: 3320 ± 1320 µM | kcat/Km [10]: 150000 M⁻¹ s⁻¹ | Km [11]: 466 ± 119 µM | kcat/Km [11]: 109000 M⁻¹ s⁻¹
